Laboratory results as given in patent US20260167959A1, “APTAZYME-BASED REGULATABLE GENE EXPRESSION SYSTEMS” (REJUVENATE BIO INC, priority 2022, published 2026).

B1: RA244 (nucleic acid)
DNA: GCGCGTCCTGGATTCGCGGAAACGCGTCCGGAATACCAGCATCGTCTTGATGCCCTTGGAAGTCCGGACATCCAGCTGACGAGTCCCAAATAGGACGAAACGCGC
modifications: expressed or natural sequence
B2: RA242 (nucleic acid)
DNA: GCGCGTCCTGGATTCCGGAATACCAGCATCGTCTTGATGCCCTTGGAAGTCCGGCGCGGAAACGCGTACATCCAGCTGACGAGTCCCAAATAGGACGAAACGCGC
modifications: expressed or natural sequence
B3: RA248 (nucleic acid)
DNA: GCGCGTCCTGGATTCGCGGAAACGCGTACATCCAGCTGACGAGTCCAGTGATACCAGCATCGTCTTGATGCCCTTGGCAGCACTCAAATAGGACGAAACGCGC
modifications: expressed or natural sequence
B4: RA250 (nucleic acid)
DNA: GCGCGAGTGATACCAGCATCGTCTTGATGCCCTTGGCAGCACTTCCTGGATTCGCGGAAACGCGTACATCCAGCTGACGAGTCCCAAATAGGACGAAACGCGC
modifications: expressed or natural sequence
B5: RA023 (nucleic acid)
DNA: GCGCGTCCTGGATTCGCGGAAACGCGTGAGAATACCAGCATCGTCTTGATGCCCTTGGAAGTCTCACATCCAGCTGACGAGTCCCAAATAGGACGAAACGCGC
modifications: expressed or natural sequence
B6: RA237 (nucleic acid)
DNA: GCGCGTCCTGGATTCGCGGAAACGCGTACATCCAGCTGACGGAGAATACCAGCATCGTCTTGATGCCCTTGGAAGTCTCAGTCCCAAATAGGACGAAACGCGC
modifications: expressed or natural sequence
B7: RA210: SEQ ID NO 210; theophylline inducible aptazyme (nucleic acid)
chain: GCTGTCACCGGAATACCAGCATCGTCTTGATGCCCTTGGAAGTCCGGTCTGATGAGTCCAAAAAGGACGAAACAGC
modifications: chemistry not given here
notes: theophylline inducible aptazyme
B8: RA024 (nucleic acid)
DNA: GCGCGTCCTGGATTCGCGGAAACGCGTACATCCAGCTGACGAGTCCCAAATAGGACAGTGATACCAGCATCGTCTTGATGCCCTTGGCAGCACTGAAACGCGC
modifications: expressed or natural sequence
B9: RA236 (nucleic acid)
DNA: GCGCGTCCTGGATTCGCGGAAACGCGTACACCGGAATACCAGCATCGTCTTGATGCCCTTGGAAGTCCGGTCCAGCTGACGAGTCCCAAATAGGACGAAACGCGC
modifications: expressed or natural sequence
B10: RA249 (nucleic acid)
DNA: GCGCGTCCTGGATTCGCGGAAACGCGTACATCCACCGGAATACCAGCATCGTCTTGATGCCCTTGGAAGTCCGGGCTGACGAGTCCCAAATAGGACGAAACGCGC
modifications: expressed or natural sequence
B11: RA241 (nucleic acid)
DNA: GCGCGTCCTCCGGAATACCAGCATCGTCTTGATGCCCTTGGAAGTCCGGGGATTCGCGGAAACGCGTACATCCAGCTGACGAGTCCCAAATAGGACGAAACGCGC
modifications: expressed or natural sequence
B12: RA245 (nucleic acid)
DNA: GGGAATACCAGCATCGTCTTGATGCCCTTGGAAGTCCCGCGTCCTGGATTCGCGGAAACGCGTACATCCAGCTGACGAGTCCCAAATAGGACGAAACGCGC
modifications: expressed or natural sequence
B13: RA240 (nucleic acid)
DNA: GCGCGTCCTGGATTCGCGGAAACGCGTACATCCAGCTGACGAGTCCCCGAGAATACCAGCATCGTCTTGATGCCCTTGGAAGTCTCGAAATAGGACGAAACGCGC
modifications: expressed or natural sequence
B14: RA247 (nucleic acid)
DNA: GCGCGTCCTGGATTCGCGGAAACGCGTACATCCAGCTGAGGAATACCAGCATCGTCTTGATGCCCTTGGAAGTCCCGAGTCCCAAATAGGACGAAACGCGC
modifications: expressed or natural sequence
B15: RA246 (nucleic acid)
DNA: GCGCGTCCTGGATTCGCGGAGAATACCAGCATCGTCTTGATGCCCTTGGAAGTCTCGAAACGCGTACATCCAGCTGACGAGTCCCAAATAGGACGAAACGCGC
modifications: expressed or natural sequence
B16: RA238 (nucleic acid)
DNA: GCGCGTCCTGGATTAGAATACCAGCATCGTCTTGATGCCCTTGGAAGTCTCGCGGAAACGCGTACATCCAGCTGACGAGTCCCAAATAGGACGAAACGCGC
modifications: expressed or natural sequence
B17: RA243 (nucleic acid)
DNA: GCGCGTCCTGGATTCGCGGAAACGCGTACATCCAGCCCGGAATACCAGCATCGTCTTGATGCCCTTGGAAGTCCGGTGACGAGTCCCAAATAGGACGAAACGCGC
modifications: expressed or natural sequence
B18: RA239 (nucleic acid)
DNA: GCGCGTCCTGGATTCGCGGAAACGCGTACATCCAGCTGACCCGGAATACCAGCATCGTCTTGATGCCCTTGGAAGTCCGGGAGTCCCAAATAGGACGAAACGCGC
modifications: expressed or natural sequence

system: Renilla luciferase RNA; assay: Barcoded aptazyme variant library screen: un-cleaved Renilla luciferase RNA by barcode read counts, HEK293-T cells; assay type: cell-based; details: un-cleaved Renilla luciferase RNA, HEK293-T cells cultured with 1 mM theophylline (ON) over without theophylline (OFF); barcode read counts, triplicate
Procedure, shortened: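 Aptazyme variants (seven theophylline aptamers inserted after each T3H48 ribozyme nucleotide, 9-nt barcoded) cloned into the 3′ UTR of Renilla luciferase in psiCHECK-2; cells cultured ± theophylline, in triplicate. RNA and DNA barcodes amplified and sequenced; normalized read counts gave un-cleaved RNA fraction and ON/OFF fold-change.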

Row | Molecule | Fold change in RNA expression between the ON state and the OFF state
1 | B1 | 1.1 fold
2 | B2 | 1.1 fold
3 | B3 | 1.1 fold
4 | B4 | 1.1 fold
5 | B5 | 2.6 fold
6 | B6 | 1.1 fold
7 | B7 | 1.2 fold
8 | B8 | 2.6 fold
9 | B9 | 1.1 fold
10 | B10 | 1.1 fold
11 | B11 | 1.1 fold
12 | B12 | 1.1 fold
13 | B13 | 1.1 fold
14 | B14 | 1.1 fold
15 | B15 | 1.1 fold
16 | B16 | 1.1 fold
17 | B17 | 1.1 fold
18 | B18 | 1.1 fold

system: GFP; assay: not given; details: HEK293-T cells, dual FP plasmid, 24 hours post-transfection

Row | Molecule | Fold-change in GFP expression, presence of theophylline over absence of theophylline
19 | B7 | 2.55 ×
